Molecular target: SerRS (full-length human seryl-tRNA synthetase) (human) (UniProt P49591)
Sequence (P49591 whole entry): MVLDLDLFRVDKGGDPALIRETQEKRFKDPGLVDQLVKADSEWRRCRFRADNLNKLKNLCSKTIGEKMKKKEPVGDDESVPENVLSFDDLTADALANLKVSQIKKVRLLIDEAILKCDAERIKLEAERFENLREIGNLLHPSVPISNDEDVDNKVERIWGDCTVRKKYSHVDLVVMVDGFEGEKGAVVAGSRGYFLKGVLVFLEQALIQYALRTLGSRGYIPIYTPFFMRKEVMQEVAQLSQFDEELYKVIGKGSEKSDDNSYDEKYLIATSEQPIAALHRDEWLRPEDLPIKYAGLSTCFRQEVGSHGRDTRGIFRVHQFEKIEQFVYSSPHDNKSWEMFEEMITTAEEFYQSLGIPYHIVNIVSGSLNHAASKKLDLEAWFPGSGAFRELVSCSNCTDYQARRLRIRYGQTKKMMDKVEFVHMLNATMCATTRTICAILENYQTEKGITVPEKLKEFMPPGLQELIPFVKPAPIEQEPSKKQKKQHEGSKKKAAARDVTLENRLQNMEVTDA

METTL6 (full-length human m^3C tRNA methyltransferase) (from UniProt Q8TCB7 1-284) (enzyme)
in vitro methyltransferase activity of METTL6 on tRNA^SerUGA after adding SerRS (^3H-SAM incorporation): 1000 fold

— article PMC11479938
